Assay results from publication PMC4944944 (2016).

Target: F-actin prepared from muscle actin (Oryctolagus cuniculus (Rabbit), UniProt P68135)
Assay: F-actin co-sedimentation

B1: Flag::mCherry::CHDP-1 (protein)
chain: MSEEIKKIEEVAEQDKAPKVPTTEPPVDVPAPVTEEAPKVEEAVAEIAAPAAAEGETATAAAAAPEEKKKSGGVARRFTFNKRWGKHRDAEASTPKEPEAPKDPKEDVLGWIAQQIPQAVHKANYQVIDWVQKTAIPEEGERKTIPGKDQATTRNQFIGFFKDGDVLAKLANALEPGAVEVAAAEENADAAAQKEVQKKNIDAFGAWAQKTLGTEAAPVTNEDLLEKGKAGYTAVFQTLWQLGVQAKEKFDKEGFNVDTIVQLANSVVKSGLLTTILGFFRRNRQAAAAVEEPKDETAAAEGAGEAKEEGATGEVADTADEPVAVKQETSAPAAVAAN
Q: Does B1 bind?
A: Result: no binding
